Test results from PMC8194098.

Molecular target: Ras:G12V mutant (UniProt P01112)
Assay: pull-down

B1: RIN1-RA:R629A mutant (natural protein)
chain: MESPGESGAGSPGAPSPSSFTTGHLAREKPAQDPLYDVPNASGGQAGGPQRPGRVVSLRERLLLTRPVWLQLQANAAAALHMLRTEPPGTFLVRKSNTRQCQALCMRLPEASGPSFVSSHYILESPGGVSLEGSELMFPDLVQLICAYCHTRDILLLPLQLPRAIHHAATHKELEAISHLGIEFWSSSLNIKAQRGPAGGPVLPQLKARSPQELDQGTGAALCFFNPLFPGDLGPTKREKFKRSFKVRVSTETSSPLSPPAVPPPPVPVLPGAVPSQTERLPPCQLLRRESSVGYRVPAGSGPSLPPMPSLQEVDCGSPSSSEEEGVPGSRGSPATSPHLGRRRPLLRSMSAAFCSLLAPERQVGRAAAALMQDRHTAAGQLVQDLLTQVRAGPEPQELQGIRQALSRARAMLSAELGPEKLLSPKRLEHVLEKSLHCSVLKPLRPILAARLRRRLAADGSLGRLAEGLRLARAQGPGAFGSHLSLPSPVELEQVRQKLLQLLRTYSPSAQVKRLLQACKLLYMALRTQEGEGAGADEFLPLLSLVLAHCDLPELLLEAEYMSELLEPSLLTGEGGYYLTSLSASLALLSGLGQAHTLPLSPVQELRRSLSLWEQRRLPATHCFQHLLAVAYQDPSSGCTSKTLAVPPEASIATLNQLCATKFRVTQPNTFGLFLYKEQGYHRLPPGALAHRLPTTGYLVYRRAEWPETQGAVTEEEGSGQSEARSRGEEQGCQGDGDAGVKASPRDIREQSETTAEGGQGQAQEGPAQPGEPEAEGSRAAEE
percent inhibition of binding: 80%
